From patent publication US20240417484A1, “ANTIGEN-BINDING POLYPEPTIDES AGAINST CD73” (UNIVERSITÄTSKLINIKUM HAMBURG-EPPENDORF, priority 2021, published 2024) come the findings set out here.

Test [1] concerns the target T1, human CD73 on cells (CD73-transfected HEK cells; native on PBMCs; OCI-AML3 cells) (human, UniProt P21589 27-549).
T1 construct: also called NT5E; gene ID 4907
T1 sequence: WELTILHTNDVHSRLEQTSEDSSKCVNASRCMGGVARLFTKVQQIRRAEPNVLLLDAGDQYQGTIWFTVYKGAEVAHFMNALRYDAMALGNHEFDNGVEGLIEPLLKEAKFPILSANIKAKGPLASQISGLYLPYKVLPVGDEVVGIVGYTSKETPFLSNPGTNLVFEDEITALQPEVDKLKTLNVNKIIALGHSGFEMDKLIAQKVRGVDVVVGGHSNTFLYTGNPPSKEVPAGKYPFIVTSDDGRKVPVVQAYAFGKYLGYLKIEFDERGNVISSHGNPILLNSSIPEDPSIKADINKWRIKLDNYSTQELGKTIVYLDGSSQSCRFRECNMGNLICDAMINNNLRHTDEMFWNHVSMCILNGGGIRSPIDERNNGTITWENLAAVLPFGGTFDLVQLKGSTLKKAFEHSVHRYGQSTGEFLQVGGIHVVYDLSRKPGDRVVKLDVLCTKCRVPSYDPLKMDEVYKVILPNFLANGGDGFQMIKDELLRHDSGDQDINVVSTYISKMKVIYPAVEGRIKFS
Kind of test: flow cytometry, human CD73-expressing cells; competitor: IPH5301. Here is the method: (§1) The binding specificities of the purified hcAbs were determined by flow cytometry using HEK cells transiently co-transfected with expression vectors for GFP and either mouse CD73, human CD73 or a control protein (CD39). 1×10⁶ cells were incubated with 10 μl of the Nb-rbIgG hcAb containing HEK-6E cell supernatants for 30 min at 4° C. […] The cells were resuspended in PBS and analyzed by flow cytometry on FACS Canto or FACS Celesta (BD Biosciences, Heidelberg). Data evaluation was conducted using the software FlowJo (Treestar, Stanford, US).
(§2) To evaluate the epitopes on the CD73 protein recognized by different VHHs, representative rabbit IgG hcAbs were binned against a set of human IgG hcAbs, and bound hcAbs were detected with a PE-conjugated anti-rabbit IgG secondary antibody. Cells were pre-incubated with excess human IgG hcAbs for […] at RT to block specific epitopes before addition of rabbit IgG hcAbs as detectors and further incubation for 15 min at RT. Cells were washed, and bound antibodies were detected with PE-conjugated anti-rabbit IgG polyclonal antibody. Cells were washed and analyzed by flow cytometry on a BD-FACS Canto. Data were analyzed using the FlowJo software (Treestar). Lack of blockade by a non-binding control human IgG hcAb served as negative control (unblocked), and blockade of binding with the same VHH carrying human IgG hcAb as the rabbit IgG hcAb used for detection served as positive controls for blocking. Values for blocking were determined by comparing the mean fluorescence intensities (MFIs) of PE staining of transfected cells for unblocked vs blocked rabbit hcAbs using the formula: inhibition (%)=100−(MFI (blocked)/MFI MFI(unblocked)*100). The values were rounded to whole percentages.

The target in test [2] is T1, human CD73 on cells (CD73-transfected …). Kind of test: flow cytometry, human CD73-expressing cells; competitor: human IgG hcAb SB143. Here is the method:
as §1, §2
In general terms: Flow cytometry measures light scatter and fluorescence of single cells or particles in a stream.

The target is the same in test [3]. Kind of test: flow cytometry, human CD73-expressing cells; competitor: MEDI9447. Here is the method: as §1, §2
The target in test [4] is T2, mouse CD73 on transfected HEK cells (mouse, UniProt Q61503 29-551).
T2 construct: whole, on cells; also called murine CD73; gene ID 23959
T2 sequence (looked up): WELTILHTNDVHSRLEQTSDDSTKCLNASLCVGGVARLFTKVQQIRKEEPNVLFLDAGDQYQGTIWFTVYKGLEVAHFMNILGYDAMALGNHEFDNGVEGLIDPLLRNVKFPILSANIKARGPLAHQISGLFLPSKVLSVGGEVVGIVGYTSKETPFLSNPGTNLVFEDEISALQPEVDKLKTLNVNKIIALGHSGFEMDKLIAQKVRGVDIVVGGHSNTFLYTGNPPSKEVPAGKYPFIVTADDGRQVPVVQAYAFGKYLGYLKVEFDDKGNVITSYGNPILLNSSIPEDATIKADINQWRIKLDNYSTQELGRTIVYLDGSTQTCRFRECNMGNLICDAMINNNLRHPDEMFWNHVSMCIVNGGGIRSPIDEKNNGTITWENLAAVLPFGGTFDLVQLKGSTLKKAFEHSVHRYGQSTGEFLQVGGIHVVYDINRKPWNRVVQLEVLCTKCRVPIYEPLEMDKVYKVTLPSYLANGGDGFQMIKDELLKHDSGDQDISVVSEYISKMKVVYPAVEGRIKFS
Kind of test: specificity column, binding to human (h) and mouse (m) CD73. Here is the method:
as §1

Test [5] has as its target T3, recombinant human CD73 ectodomain (aa 27-549) with C-terminal His6x tag (human, UniProt P21589 27-549).
T3 construct: also called soluble recombinant human CD73; soluble human CD73
T3 sequence: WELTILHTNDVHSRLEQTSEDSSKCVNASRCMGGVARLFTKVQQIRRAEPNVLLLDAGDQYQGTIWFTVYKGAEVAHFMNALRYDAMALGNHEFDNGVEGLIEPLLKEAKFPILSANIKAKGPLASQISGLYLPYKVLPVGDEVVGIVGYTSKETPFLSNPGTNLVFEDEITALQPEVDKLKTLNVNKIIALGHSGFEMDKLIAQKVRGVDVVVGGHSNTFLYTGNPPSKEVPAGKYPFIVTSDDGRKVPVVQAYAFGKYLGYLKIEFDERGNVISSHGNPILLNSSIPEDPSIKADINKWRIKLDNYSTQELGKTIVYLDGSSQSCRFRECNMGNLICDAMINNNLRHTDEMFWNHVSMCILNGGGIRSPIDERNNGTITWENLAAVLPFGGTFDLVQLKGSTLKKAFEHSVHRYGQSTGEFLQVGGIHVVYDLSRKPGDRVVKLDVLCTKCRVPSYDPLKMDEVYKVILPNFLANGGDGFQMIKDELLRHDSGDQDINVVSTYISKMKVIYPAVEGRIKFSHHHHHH
Kind of test: BLI (Octet), immobilized Nb-rbIgG hcAb, soluble human CD73 as analyte. Here is the method: (§3) The binding off-rate constants of bivalent hcAbs to human and mouse CD73 protein were determined by […] kinetic analysis on Octet RED96 (ForteBio). Immobilization of rabbit IgG hcAbs on the protein A-biosensor surface was done in HEK-6E cell supernatant, and regeneration of analytes was done with 100 mM Glycin pH=2.5. Recombinant mouse or human CD73 ectodomain was used as analytes and tested at a saturating dose of 200 ng/μl. Sensorgrams were fitted using least square regression in association than dissociation Model in Prism8 (Graphpad).
(In general: In BLI a coated tip is dipped into the sample, and binding shifts an interference pattern.)

In test [6] the target is T1, human CD73 on cells (CD73-transfected …). Kind of test: flow cytometry, human CD73-expressing cells; competitor: human IgG hcAb SB139. Here is the method:
as §1, §2

The target is the same in test [7]. Kind of test: flow cytometry, human CD73-expressing cells; competitor: human IgG hcAb SB121. Here is the method:
as §1, §2

Test [8] has the same target. Kind of test: flow cytometry, human CD73-expressing cells; competitor: human IgG hcAb SB141. Here is the method:
as §1, §2

For test [9] the target is unchanged. Kind of test: flow cytometry, human CD73-expressing cells; competitor: human IgG hcAb SB96. Here is the method: as §1, §2
For test [10] the target is unchanged. Kind of test: flow cytometry, human CD73-expressing cells; competitor: human IgG hcAb SB116. Here is the method:
as §1, §2

A further test concerns the target T4, soluble human CD73 (Homo sapiens, UniProt P21589).
T4 construct: The ectodomain of CD73 (aa 27-549) was expressed as a recombinant protein with a C-terminal His6× tag; His6 (C); made in house; host or cells: transiently transfected HEK cells
T4 sequence (P21589 27-549): T1 sequence
Kind of test: Off-rates of soluble CD73 from immobilized Nb-rbIgG hcAb on Octet BLI. In kind it is binding. The conditions noted are these: soluble human CD73 ectodomain 200 ng/μl as analyte; Nb-rbIgG hcAb immobilized on protein A biosensor. Here is the method:
as §3

For another test, the target named is T5, human CD73 (Homo sapiens, UniProt P21589).
T5 construct: expressed in transfected cells; stably transfected in method 5.1)
T5 sequence (P21589 27-549): T1 sequence
Kind of test: Flow cytometry binding of rabbit IgG hcAbs to human CD73-transfected HEK cells. The conditions noted are these: family representative clone; h = binds human CD73, m = binds mouse CD73. Here is the method:
HEK cells were co-transfected with expression vectors for green fluorescent protein (GFP) and human CD73, mouse CD73, and a control cell surface protein (CD39). 48 h after transfection, cells were incubated with HEK cell supernatants containing the indicated rabbit IgG hcAbs. Bound antibodies were detected with PE-conjugated anti rabbit IgG secondary antibody.
• 5.1 Untransfected HEK293 cells and HEK293 cells stably transfected with human or mouse CD73 were incubated for 30 min with HEK-6E cell supernatants containing rabbit IgG hcAbs (diluted 1:10 in PBS/0.1% BSA). Following washing with PBS/0.1% BSA, bound antibodies were detected with PE-conjugated goat anti-rabbit IgG polyclonal antibody (711-116-152 Dianova, Hamburg). • 5.2 For dissociation analyses, two separate aliquots of CD73-transfected cells were incubated either with Cell Proliferation Dye eFluor 450 (eBioscience) or with hcAbs for 20 min at RT. Cells were washed four times, mixed at a 1:1 ratio and further incubated at RT for 120 min before staining of bound antibodies with PE-conjugated goat anti-rabbit IgG polyclonal antibody. The dissociation of hcAbs from the target cells and association with the eFluor 450 labeled cells was analyzed by flow cytometry using the FlowJo software (Treestar). • 5.3 For epitope analyses, cells were preincubated with excess human IgG hcAbs (10 μl HEK-6E cell supernatant/100 μl PBS/0.1% BSA) for 30 min at RT before addition of Nb-rabbit IgG hcAbs (1 μl HEK-6E cell supernatant/100 μl PBS/0.1% BSA) and further incubation for 20 min at RT and staining with PE-conjugated anti-rabbit polyclonal antibody (711-116-152 Dianova, Hamburg). Cells were washed and analyzed by flow cytometry on a BD-FACS Canto. Data were analyzed using the FlowJo software (Treestar).
The binding specificities of the purified hcAbs were determined by flow cytometry using HEK cells transiently co-transfected with expression vectors for GFP and either mouse CD73, human CD73 or a control protein (CD39). 1×10^6 cells were incubated with 10 μl of the Nb-rbIgG hcAb containing HEK-6E cell supernatants for 30 min at 4° C. After washing, the cells were incubated with PE-conjugated anti-rabbit IgG polyclonal antibody (711-116-152 Dianova, Hamburg) and washed twice. The cells were resuspended in PBS and analyzed by flow cytometry on FACS Canto or FACS Celesta (BD Biosciences, Heidelberg). Data evaluation was conducted using the software FlowJo (Treestar, Stanford, US).

B1: SB139 rabbit IgG hcAb (Fc fusion)
heavy: QVQLQESGGGLVQAGGSLRLSCAASENIFNIYGMGWYRQAPGKLRDLVAKITSGGRTTYADSVKGRFTISGDNAKNTVYLQMNSLKPEDTAVYYCNSYYYWGQGTQVTVSS
notes: not shown: hinge and Fc-domains of rabbit IgG
In the case of B1, the “percent inhibition of binding” value worked out at 66% in [1]; 77% in test [2]; 73% in [3]; 50% in test [6]; 3% in test [7]; 47% in [8]. For the same molecule, the “percent inhibition of binding” value in test [9] turned out to be 76%; in [10] it was 75%. Besides, the binding result in test [4] is “binds”. Moreover, the koff (commonly a measure of how fast the partners let go of each other) in [5] was found to be 0.046 s⁻¹.

B2: SB139: CD73-specific alpaca VHH clone, family 6, SEQ ID NO:83; tested as rabbit or human IgG hcAb (antibody)
heavy: B1 heavy
modifications: left off: a dimerising Fc or GST
notes: tested as rabbit or human IgG hcAb
As to B2, the Kdis with soluble human CD73 is 0.046 s⁻¹. Also, the specificity result with human CD73 was “h + m”.
